The target in experiment [1] is ERK1 (p44) active (GST tagged), human, Invitrogen PV 3311 (human) (UniProt P27361). Description: RPA, competition: +free H3 peptide 10000 nM.
Experiment [2] addresses ERK1 (p42) active (phospho), human, Active Motif 31 152 (human) (UniProt P27361). Description: RPA, competition: +free H3 peptide 10000 nM.
The target of experiment [3] is pErk1/2-BSA 2.7x peptide-protein conjugate (human; bovine). Nature of the experiment: RPA, competition: +free H3 peptide 10000 nM.
Chain of pErk1/2-BSA 2.7x peptide-protein conjugate (human; bovine) (P02769 25-607 limits assumed): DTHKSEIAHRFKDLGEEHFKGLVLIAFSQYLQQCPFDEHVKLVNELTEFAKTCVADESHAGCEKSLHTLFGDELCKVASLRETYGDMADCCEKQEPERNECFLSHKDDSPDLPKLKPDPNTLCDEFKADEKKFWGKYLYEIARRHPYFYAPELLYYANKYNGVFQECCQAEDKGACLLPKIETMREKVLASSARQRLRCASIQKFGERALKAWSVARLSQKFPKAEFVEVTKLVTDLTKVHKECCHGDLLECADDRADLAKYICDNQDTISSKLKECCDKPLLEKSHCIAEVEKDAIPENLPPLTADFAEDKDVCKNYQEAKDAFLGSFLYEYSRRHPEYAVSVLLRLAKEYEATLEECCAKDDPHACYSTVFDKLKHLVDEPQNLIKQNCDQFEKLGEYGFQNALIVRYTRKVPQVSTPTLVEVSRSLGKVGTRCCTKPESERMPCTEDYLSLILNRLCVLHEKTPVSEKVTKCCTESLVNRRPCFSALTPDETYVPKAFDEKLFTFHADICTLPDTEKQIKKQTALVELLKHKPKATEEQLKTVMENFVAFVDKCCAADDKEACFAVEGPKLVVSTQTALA
Experiment [4] concerns the target ERK1 (p44) inactive (GST tagged), human, Invitrogen PV 3312 (human) (UniProt P27361). Nature of the experiment: RPA, competition: +free H3 peptide 10000 nM.
Experiment [5] concerns the target Histone H3 recombinant protein, human, Upstate 14-494 (human) (UniProt P68431). Nature of the experiment: RPA standard curve, assay 1, LOD back-calculated from one-site fit.
Experiment [6] deals with Histone H3-BSA 2.7x peptide-protein conjugate (bovine). Described as above.
Chain of Histone H3-BSA 2.7x peptide-protein conjugate (bovine) (P02769 25-607 limits assumed): as above
Experiment [7] has as its target Erk1-BSA 2.7x peptide-protein conjugate (human; bovine). The experiment is described as above.
Experiment [8] has as its target ERK1 (p44) inactive (GST tagged), human, Invitrogen PV 3312 (human) (UniProt P27361). Described as above.
Experiment [9] addresses pErk1/2-BSA 2.7x peptide-protein conjugate (human; bovine). Nature of the experiment: RPA, 8 point dilution series of the peptide standard in buffer, assay 1.
For experiment [10], the target named is ERK1 (p42) active (phospho), human, Active Motif 31 152 (human) (UniProt P27361). Description: RPA standard curves.
Experiment [11] has as its target Histone H3 recombinant protein, human, Upstate 14-494 (human) (UniProt P68431). Description: RPA, competition: +free pErk1/2 peptide 100 nM.
In experiment [12] the target is ERK1 (p44) active (GST tagged), human, Invitrogen PV 3311 (human) (UniProt P27361). Nature of the experiment: RPA, competition: +free pErk1/2 peptide 100 nM.
For experiment [13], the target named is ERK1 (p42) active (phospho), human, Active Motif 31 152 (human) (UniProt P27361). Description: RPA, competition: +free pErk1/2 peptide 100 nM.
Experiment [14] concerns the target ERK1 (p44), human, Cell Signaling Technology 7416 (human) (UniProt P27361). Description: RPA, competition: +free pErk1/2 peptide 100 nM.
Experiment [15] has as its target pRb recombinant protein, human, Active Motif 31 128 (human) (UniProt P06400). Nature of the experiment: RPA, competition: +free pErk1/2 peptide 100 nM.
Chain of UniProt P06400 (P06400 whole entry): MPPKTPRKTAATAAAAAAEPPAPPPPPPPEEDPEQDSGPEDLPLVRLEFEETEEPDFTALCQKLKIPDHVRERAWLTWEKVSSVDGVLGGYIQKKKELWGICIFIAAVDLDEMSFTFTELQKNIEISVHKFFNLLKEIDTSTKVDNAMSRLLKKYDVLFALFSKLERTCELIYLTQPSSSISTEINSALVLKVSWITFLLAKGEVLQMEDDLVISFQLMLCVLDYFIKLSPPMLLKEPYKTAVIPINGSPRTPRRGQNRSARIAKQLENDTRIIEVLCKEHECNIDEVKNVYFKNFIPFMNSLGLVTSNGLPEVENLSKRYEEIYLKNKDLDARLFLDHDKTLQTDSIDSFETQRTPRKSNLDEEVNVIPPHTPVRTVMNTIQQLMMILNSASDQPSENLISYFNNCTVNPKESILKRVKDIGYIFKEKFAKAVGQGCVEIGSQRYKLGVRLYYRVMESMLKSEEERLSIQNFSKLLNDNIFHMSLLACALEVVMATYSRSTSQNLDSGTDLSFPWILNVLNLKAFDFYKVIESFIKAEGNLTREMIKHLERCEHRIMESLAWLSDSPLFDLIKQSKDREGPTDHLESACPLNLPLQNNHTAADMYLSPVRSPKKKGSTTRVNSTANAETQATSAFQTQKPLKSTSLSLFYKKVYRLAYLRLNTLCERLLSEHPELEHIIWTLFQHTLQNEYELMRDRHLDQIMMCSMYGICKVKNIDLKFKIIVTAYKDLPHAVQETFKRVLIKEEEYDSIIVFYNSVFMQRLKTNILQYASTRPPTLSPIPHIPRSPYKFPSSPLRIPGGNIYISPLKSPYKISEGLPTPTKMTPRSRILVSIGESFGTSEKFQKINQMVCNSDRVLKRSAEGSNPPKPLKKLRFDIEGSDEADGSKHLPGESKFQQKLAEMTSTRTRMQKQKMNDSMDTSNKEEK
Experiment [16] concerns the target ERK2 (p42), human, Biosource PHO 0104 (human) (UniProt P28482). Nature of the experiment: RPA, competition: +free pErk1/2 peptide 100 nM.
Chain of UniProt P28482 (P28482 2-360 limits assumed): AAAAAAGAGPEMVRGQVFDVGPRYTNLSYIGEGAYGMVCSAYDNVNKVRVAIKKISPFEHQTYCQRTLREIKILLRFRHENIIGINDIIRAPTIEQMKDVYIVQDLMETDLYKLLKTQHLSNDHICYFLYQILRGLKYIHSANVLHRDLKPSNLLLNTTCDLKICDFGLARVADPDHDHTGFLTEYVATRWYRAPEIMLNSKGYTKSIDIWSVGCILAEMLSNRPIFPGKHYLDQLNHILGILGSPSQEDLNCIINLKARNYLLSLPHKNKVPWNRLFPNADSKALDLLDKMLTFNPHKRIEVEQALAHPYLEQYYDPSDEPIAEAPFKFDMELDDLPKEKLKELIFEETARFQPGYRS
The target of experiment [17] is Histone H3-BSA 2.7x peptide-protein conjugate (bovine). Nature of the experiment: RPA, competition: +free pErk1/2 peptide 100 nM.
Experiment [18] concerns the target pRb-BSA 1x peptide-protein conjugate (bovine). Nature of the experiment: RPA, competition: +free pErk1/2 peptide 100 nM.
Experiment [19] addresses Histone H3 recombinant protein, calf, Roche 11 034 758 001 (calf) (UniProt P68432). Description: RPA, competition: +free pErk1/2 peptide 100 nM.
For experiment [20], the target named is pErk1/2-BSA 2.7x peptide-protein conjugate (human; bovine). Description: RPA, competition: +free pErk1/2 peptide 100 nM.
The target in experiment [21] is Erk1-BSA 2.7x peptide-protein conjugate (human; bovine). Description: RPA, competition: +free pErk1/2 peptide 100 nM.
Chain of Erk1-BSA 2.7x peptide-protein conjugate (human; bovine) (peptide, as listed by the source limits assumed, chain 1 of 2): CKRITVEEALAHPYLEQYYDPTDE
Chain of Erk1-BSA 2.7x peptide-protein conjugate (human; bovine) (P02769 25-607 limits assumed, chain 2 of 2): as the sequence (P02769 25-607 limits assumed) above
The target in experiment [22] is ERK1 (p44) inactive (GST tagged), human, Invitrogen PV 3312 (human) (UniProt P27361). Description: RPA, competition: +free pErk1/2 peptide 100 nM.
Experiment [23] deals with pErk1/2-BSA 2.7x peptide-protein conjugate (human; bovine). Nature of the experiment: RPA, normal assay.
In experiment [24] the target is Histone H3 recombinant protein, human, Upstate 14-494 (human) (UniProt P68431). Description: RPA, competition: +free pErk1/2 peptide 10 nM.
Experiment [25] deals with ERK1 (p44) active (GST tagged), human, Invitrogen PV 3311 (human) (UniProt P27361). Nature of the experiment: RPA, competition: +free pErk1/2 peptide 10 nM.
Experiment [26] deals with ERK1 (p42) active (phospho), human, Active Motif 31 152 (human) (UniProt P27361). Description: RPA, competition: +free pErk1/2 peptide 10 nM.
For experiment [27], the target named is ERK1 (p44), human, Cell Signaling Technology 7416 (human) (UniProt P27361). Nature of the experiment: RPA, competition: +free pErk1/2 peptide 10 nM.
The target of experiment [28] is pRb recombinant protein, human, Active Motif 31 128 (human) (UniProt P06400). Nature of the experiment: RPA, competition: +free pErk1/2 peptide 10 nM.
Experiment [29] addresses ERK2 (p42), human, Biosource PHO 0104 (human) (UniProt P28482). Description: RPA, competition: +free pErk1/2 peptide 10 nM.
Experiment [30] concerns the target Histone H3-BSA 2.7x peptide-protein conjugate (bovine). Nature of the experiment: RPA, competition: +free pErk1/2 peptide 10 nM.
Experiment [31] concerns the target pRb-BSA 1x peptide-protein conjugate (bovine). Nature of the experiment: RPA, competition: +free pErk1/2 peptide 10 nM.
Experiment [32] has as its target Histone H3 recombinant protein, calf, Roche 11 034 758 001 (calf) (UniProt P68432). Description: RPA, competition: +free pErk1/2 peptide 10 nM.
In experiment [33] the target is pErk1/2-BSA 2.7x peptide-protein conjugate (human; bovine). Nature of the experiment: RPA, competition: +free pErk1/2 peptide 10 nM.
In experiment [34] the target is Erk1-BSA 2.7x peptide-protein conjugate (human; bovine). Description: RPA, competition: +free pErk1/2 peptide 10 nM.
For experiment [35], the target named is ERK1 (p44) inactive (GST tagged), human, Invitrogen PV 3312 (human) (UniProt P27361). Description: RPA, competition: +free pErk1/2 peptide 10 nM.
Experiment [36] concerns the target pErk1/2-BSA 2.7x peptide-protein conjugate (human; bovine). Nature of the experiment: RPA standard curve, assay 1, LOD back-calculated from one-site fit.

Chain of pRb-BSA 1x peptide-protein conjugate (bovine) (P02769 25-607 limits assumed): as above

As to Histone H3 antibody, Abcam ab1791, the maximum standard curve signal was less than 0.01 RFI in [1], less than 0.01 RFI in experiment [2], 0.02 RFI in experiment [3] and less than 0.01 RFI in experiment [4]. Besides, the LOD is 0.133 nM in experiment [5] and 0.104 nM in experiment [6].

Consider “p44/42 MAPK (Erk1/2) antibody, Biosource 44-654G”, for which the LOD is 0.045 nM in [7] and 0.059 nM in [8]. Further, the mean signal (standard curve) in [9] was 0.01 RFI.

Regarding “p44/42 MAPK phospho (pERK1/2) Thr202/Tyr204 antibody, Cell Signaling Technology #9101”, the signal relative to pErk1 protein (Invitrogen) in [10] was 12%. Besides, the maximum standard curve signal in [11] was less than 0.01 RFI; in experiment [12], 0.01 RFI; in experiment [13], 0.01 RFI; in experiment [14], less than 0.01 RFI; in [15], 0.01 RFI; in experiment [16] it was 0.01 RFI. Also, the maximum standard curve signal in [17] came to 0.1 RFI; in experiment [18], 0.01 RFI; in [19] it was 0.01 RFI; in experiment [20], 0.45 RFI; in experiment [21] it was 0.02 RFI; in experiment [22] it was 0.01 RFI. Besides, the maximum standard curve signal in experiment [23] is 3.47 RFI; in experiment [24], 0.01 RFI; in [25], 0.05 RFI; in experiment [26], 0.01 RFI; in experiment [27], 0.01 RFI; in experiment [28] it was 0.01 RFI. Also, the maximum standard curve signal in experiment [29] came to 0.01 RFI; in experiment [30], 0.1 RFI; in experiment [31] it was 0.01 RFI; in experiment [32], 0.01 RFI; in [33] it was 1.05 RFI; in experiment [34], 0.01 RFI. The substance further registered a maximum standard curve signal in [35] of 0.01 RFI. The LOD in [36] is 0.028 nM.
